# From the nanobody polyreactivity screen of Harvey et al. (2022)
# Test: yeast display, Sf9 membrane polyspecificity reagent, FACS + sequencing; frameworks hold sequencing errors
# In short: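 Galactose induction of a Saccharomyces cerevisiae BJ5465 synthetic nanobody display library ran 36–48 hours. The cells were then stained for 1 hour at 4 °C with 10% biotinylated, detergent-solubilized Sf9 membrane reagent, pulled down on streptavidin microbeads and FACS-sorted into low and high (top ~1%) gates on expression and reagent-binding fluorescence. Labels for polyreactivity follow the gate of origin.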
row,Sequence,polyreactivity (PSR sort gate)
1,QVQLVESGGGLVQAGGSLRLSCAASGSIFRNYAMGWYRQAPGKERELVARISYSGGRTHYADSVKGRFTISRDNAKNTVYFQMNSLNPEDTAVYYCAAPFHFTHFQGNYYWGQGTQVTVSS,low polyreactivity
2,QVQLVESGGGLVQAGGSLRLSCAASGSIFRPNAMGWYRQAPGKEREFVASISGRVGSTYYADSVKGRFTISRDNAKNTVYLQMYSLKPEDTAVYYCAADSRGGYKRNYWGQGTQVTVSS,high polyreactivity
3,QVQLVESGGGLVQAGGSLRLSCAASGSIFRPNAMGWYRQAPGKERELVAAITFRGSRTYYADSVKGRFTISRDNAKNPVYLQMNSMKPEDTAVYYCNRLAGQDQEFEYWGQGTQVTVSS,high polyreactivity
4,QVQLVESGGGLVQAGGSLRLSCAASGSIFRPNAMGWYRQPPGKERELVALITRGGSTNYADSVKGRFTISRDNAKNTVYLQMNSLKPEDTAVYYCAVDLWYPPVWVRVSEFDYWGQGTQVTVSS,low polyreactivity
5,QVQLVESGGGLVQAGGSLRLSCAASGSIFRPYAMGWYRQAPGKEREFVASISWRGGSTYADSVKGRFTISRDNAKNTVYLQMNSLKPEDTAVYYCAAKFWRYRYYEYDYWGQGTQVTVSS,high polyreactivity
6,QVQLVESGGGLVQAGGSLRLSCAASGSIFRPYAMGWYRQAPGKERELVAAIRGGGTYYADSVKGRFTISRDNAKNTVYLQMNSLKPEDTAVYYCAQYRYSYYYWGQGTQVTVSS,high polyreactivity
7,QVQLVESGGGLVQAGGSLRLSCAASGSIFRPYAMGWYRQAPGKERELVAAISDSGGSTYYADSVKGRFTISRDNAKNTVYLQMNSLKPEDTAVYYCNAYSVWYYLASVLEVDYWGQGTQVTVSS,low polyreactivity
8,QVQLVESGGGLVQAGGSLRLSCAASGSIFRQYAMGWYRQAPGKERELVAAINYSGGNTYYADSVKGRFTISRDNAKNTVYLQMNSLKPEDTAVYYCAADSVRHYWWAYYYWGQGTQVTVSS,low polyreactivity
9,QVQLVESGGGLVQAGGSLRLSCAASGSIFRQYAMGWYRQAPGKERELVAAISRGGITYYADSVKGRFTISRDNAKNTVYLQMNSLKPEDTAVYYCAARYGRGERGGFYWGQGTQVTVSS,high polyreactivity
10,QVQLVESGGGLVQAGGSLRLSCAASGSIFRQYAMGWYRQAPGKERELVATISRSGGSTYYADSVKGRFTISRDNAKNTVYLQMNSLKPEDTAVYYCAASRYKKSYREWWVGSWGQGTQVTVSS,high polyreactivity
11,QVQLVESGGGLVQAGGSLRLSCAASGSIFRRNAMGWYRQAPGKEREFVAAITWIGGSTYYADSVKGRFTISRDNAKNTVYLQMNSLKPEDTAVYYCAAKYRTYPSNYYYWGQGTQVTVSS,high polyreactivity
12,QVQLVESGGGLVQAGGSLRLSCAASGSIFRRYAMGWYRKAPGKEREMVAGISRTGSRTYYADSVKGRFTISRDNAKNTVYLQMNSLKPEDTAVYYCAALGPGRSGFFRYDYWGQGTQVTVSS,high polyreactivity
13,QVQLVESGGGLVQAGGSLRLSCAASGSIFRRYAMGWYRQAPGKERELVAGITRGGSTYYADSVKGRFTISRDNAKNTVYLQMNSLKPEDTAVYYCNAVRRGLPVVGAYDYWGQGTQVTVSS,high polyreactivity
14,QVQLVESGGGLVQAGGSLRLSCAASGSIFRRYAMGWYRQAPGKERELVAGITRGGSTYYADSVKGRFTISRDNAKNTVYLQMNSLKPEDTAVYYCNRAARYGEYDYWGQGTQVTVSS,high polyreactivity
15,QVQLVESGGGLVQAGGSLRLSCAASGSIFRRYAMGWYRQAPGKERELVATITSTDSTNYADSVKGRFTISRDNAKNTVYLQMNSLKPEDTAVYYCAKRPYHYRRNSEYYYWGQGTQVTVSS,low polyreactivity
16,QVQLVESGGGLVQAGGSLRLSCAASGSIFRRYDMGWYRQAPGKERELVAAISSSGGSTYYADSVKGRFTISRDNAKNTVYLHMKSLKPEDTAVYYCAADIYDYDRSEYTEYDYWGQGTQVTVSS,low polyreactivity
17,QVQLVESGGGLVQAGGSLRLSCAASGSIFRRYTMGWYRPAPGKERELVAAISRVGNTNYADSVKGRFTISRDNAKNTVYLPMNSLKPEDTAVYYCAARAIGYRYTPGLNYWGQGTQLTVSS,high polyreactivity
18,QVQLVESGGGLVQAGGSLRLSCAASGSIFRSDPMGWYRQAPGKEREFVASITYRGGRTYYADSVKGRFTISRDNAKNTVSLQLNSLKPEDSAVYYCAARTRAGAWTSKYHDYWGQGTQVTVSS,high polyreactivity
19,QVQLVESGGGLVQAGGSLRLSCAASGSIFRSNALGWYRQAPGKERELVAAISWSGGRTYYADSVKGRFTISRDNAKNTVSLQMTSLKPEDTAVYYCAVGFRTLHGDYGYWGQGTQVTVSS,high polyreactivity
20,QVQLVESGGGLVQAGGSLRLSCAASGSIFRSNAMGWYRQAPGKERELVAAISRSGGRTYYADSVKGRFTISRDNAKNTVYLLMNSLKPEDTAVYYCAAQVVRSLKYEYWGQGTQVTVSS,high polyreactivity
21,QVQLVESGGGLVQAGGSLRLSCAASGSIFRSNAMGWYRQAPGKERELVAAISWRGGRTYYADSVKGRFTISRDNAKNSVYLLMNSLKPEDTAVYYCATEVEPYAYGYWGQGTQVTVSS,high polyreactivity
22,QVQLVESGGGLVQAGGSLRLSCAASGSIFRSNAMGWYRQAPGQERELVAAISRSGGRTYYADSVKGRFTISRDNAKNTVYLQMNSLKPEDTAVYYCAAQVVRSLKYEYWGQGTQVTVSS,high polyreactivity

row,Sequence,polyreactivity (PSR sort gate)
1,QVQLVESGGGLVQAGGSLRLSCAASGSIFRSNGMGWYREAPGKERELVAAITSSGGSTYYADTVKGRFTISRDNAKNTVYLHMNSLKPEDTAVYYCAKRWNWSYNYWGQGTQVTVSS,high polyreactivity
2,QVQLVESGGGLVQAGGSLRLSCAASGSIFRSYAMGWYRQAPGKEREFVAAISNGGRTSYADSVKGRFTISRDNAKYNVYLQMNSLKPEDTAVYDCNARYSRRAMGYWGQGTQVTVSS,high polyreactivity
3,QVQLVESGGGLVQAGGSLRLSCAASGSIFRSYAMGWYRQAPGKERELVAAIRGGGSTNYADSVKGRFTISRDNAKNTVYLQMNSLKPEDTAVYYFAADKKTKVDWGQGTQVTVSS,high polyreactivity
4,QVQLVESGGGLVQAGGSLRLSCAASGSIFRSYAMGWYRQAPGKERELVAAISRGGSTTYADSVKGRFTISRDNAKNTVYLQMNSLKPEDTAVYYCAVANVYYEGYDYWGQGTQVTVSS,low polyreactivity
5,QVQLVESGGGLVQAGGSLRLSCAASGSIFRSYAMGWYRQAPGKERELVAAISWRGGRTYYADSVKGRFTISRDNAKNTVYLQMNSLKPEDTAVYYCAVDFYVYRWSPYGDVYRYDYWGQGTQVTVSS,high polyreactivity
6,QVQLVESGGGLVQAGGSLRLSCAASGSIFRSYAMGWYRQAPGKERELVAAITSRGSSTYYADSVTGRFTISRDNAKNTVYLQMNSLKPEDSAVYYCATVFPYSARDGLDYWGQGTQVTVSS,high polyreactivity
7,QVQLVESGGGLVQAGGSLRLSCAASGSIFRSYAMGWYRQAPGKQREFVAAITGSGGRTYYADSVKGRFTISRDNAKNTVYLQMNCLKPEDTAVYYCAAALSRRYKSGGPYGFNYWGQGTQVTVSS,high polyreactivity
8,QVQLVESGGGLVQAGGSLRLSCAASGSIFRSYAMGWYRQAPGTERELVDGISYSGGSTYYADSVKGRFTISRDNAKNTVYLQMNSLKPEDTAVYYCNVDGGTYFFFVGAWGEYDYWGQGTQVTVSS,low polyreactivity
9,QVQLVESGGGLVQAGGSLRLSCAASGSIFRTNAMGWYRQAPGKERELVAAITGRGGSTYYADSVKGRFTISRNNAKNTVYLQMNSLKPEDTAVYDCAADTWYGYRYKYDYWGQGTQVTVSS,high polyreactivity
10,QVQLVESGGGLVQAGGSLRLSCAASGSIFRTNAMGWYRQAPGKERELVAAITTSGVTTYYADSVKGRFTISRDNPTNTVYLQMNSLKPEDTAVYYCNARDGRYLPRYDYWRQGTQVTVSS,low polyreactivity
11,QVQLVESGGGLVQAGGSLRLSCAASGSIFRTYAMGWYRQAPGKEREWVAAISSTGGRTYYADSVKGRFTISRDNAKNTVYLQMNSLKPEDTAVYYCAKRYRYITYRYDYWGQGTQVTVSS,high polyreactivity
12,QVQLVESGGGLVQAGGSLRLSCAASGSIFRTYAMGWYRQAPGKESELVAAISRSGSSTYYADSVKGRFTISRDNAKNTVYLQRTSLQPEDTAVYYCAAYWPLSYGARGSNYWGQGTQVTVSS,high polyreactivity
13,QVQLVESGGGLVQAGGSLRLSCAASGSIFRVNAMGWYRQAPGKERELVAAISCRGASTYYADSVKGRFTISRDNAKNTVYLQMNSLKPVDTAVYYCAAYGYSIGPYYYWGQGTQVTGSS,high polyreactivity
14,QVQLVESGGGLVQAGGSLRLSCAASGSIFRVNDMGWYRQAPGKERELVATISRSGAITYYADSVKGRFTISRDNAKNTVNLQMNSLKPEDNAVYYCAADFLSRDWGQGTQVTLSS,low polyreactivity
15,QVQLVESGGGLVQAGGSLRLSCAASGSIFRVYAMGWYRQAPGKERELVAAISRGGGTTYYADSVKGRFTISRDNAKNTVYLQMNRLKPEDTAVYYCASEYLGYYYQFDSWGQGTQVTVSS,high polyreactivity
16,QVQLVESGGGLVQAGGSLRLSCAASGSIFRVYAMGWYRQAPGKERELVAAITNGGNTNYADSVKGRFTISRDNAKNTVYLQMNSLKPEDTAVYYCAADPLRTPGARHTPYKGTYDYWGQGTQVTVSS,high polyreactivity
17,QVQLVESGGGLVQAGGSLRLSCAASGSIFRVYAMGWYRQAPGKERELVAGISSRGGTSTYYADSVKGRFTISRDNAKNSVYLQMNSLNPEETAVYYCAVQVRYPGYDYWGQGTQVTVSS,low polyreactivity
18,QVQLVESGGGLVQAGGSLRLSCAASGSIFRWNAMGWSRQAPGKERELVAAITWDGGRTYYADSVKGRFTISRDNAKNTVYLQMNSLKPEDTAVYYCNADNARGRSGVRRYYWGQGTQVTVSS,high polyreactivity
19,QVQLVESGGGLVQAGGSLRLSCAASGSIFRWNAMGWYRQAPGKEREFVAAISGRGGSTYYADSVKGRFTISRDNAKNTVYLQMNSLKPEDTAVYYCAADQAHLATRGFDYWGQGTQVTVSS,high polyreactivity
20,QVQLVESGGGLVQAGGSLRLSCAASGSIFRWYAMGWYRQAPGKERELVAAITGSGGRTYYADSVKGRFTISRDNAKNTVYLQMNSLNPEDTAVYYCATRYGREDYWGQGTQVTVSS,high polyreactivity
21,QVQLVESGGGLVQAGGSLRLSCAASGSIFRYAMGWYRQAPGKERELVATISESGGRTYYADSVKGRFTISRDNANNTVYLQMNSLKPEDTAVYYCAADLKYYYGYRPWFQGGYWGQGTQVTVSS,low polyreactivity
